From patent US20050064539A1

Biological target: mannose-6-phosphate receptor (human (cultured skin fibroblasts from a Fabry disease patient)) (UniProt O00264)
Assay: cell-based or functional assay

Chain of UniProt O00264 (O00264 whole entry): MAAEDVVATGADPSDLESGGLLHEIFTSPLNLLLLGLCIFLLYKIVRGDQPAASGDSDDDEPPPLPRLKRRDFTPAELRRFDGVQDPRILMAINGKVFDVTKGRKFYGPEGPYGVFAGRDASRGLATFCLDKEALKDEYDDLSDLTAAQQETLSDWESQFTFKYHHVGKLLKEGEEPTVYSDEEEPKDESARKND

mannosidase-treated α-galactosidase (human α-galactosidase produced by S. cerevisiae strain HPY21G, treated with Cellulomonas SO-5-derived α-mannosidase) (from UniProt P06280 32-429) (enzyme)
α-galactosidase activity in the cell extract of Fabry patient-derived fibroblasts 18 hours after adding enzyme at 1 µg/ml (uptake experiment): 3 fold
